What all share (assay): pull-down
In experiment [1] the target is T1, cohesin subcomplex containing SA2 (residues 80–1060) and Scc1 (residues 281–420) (UniProt Q8N3U4 80-1060; O60216 281-420).
T1 sequence (looked up) 1: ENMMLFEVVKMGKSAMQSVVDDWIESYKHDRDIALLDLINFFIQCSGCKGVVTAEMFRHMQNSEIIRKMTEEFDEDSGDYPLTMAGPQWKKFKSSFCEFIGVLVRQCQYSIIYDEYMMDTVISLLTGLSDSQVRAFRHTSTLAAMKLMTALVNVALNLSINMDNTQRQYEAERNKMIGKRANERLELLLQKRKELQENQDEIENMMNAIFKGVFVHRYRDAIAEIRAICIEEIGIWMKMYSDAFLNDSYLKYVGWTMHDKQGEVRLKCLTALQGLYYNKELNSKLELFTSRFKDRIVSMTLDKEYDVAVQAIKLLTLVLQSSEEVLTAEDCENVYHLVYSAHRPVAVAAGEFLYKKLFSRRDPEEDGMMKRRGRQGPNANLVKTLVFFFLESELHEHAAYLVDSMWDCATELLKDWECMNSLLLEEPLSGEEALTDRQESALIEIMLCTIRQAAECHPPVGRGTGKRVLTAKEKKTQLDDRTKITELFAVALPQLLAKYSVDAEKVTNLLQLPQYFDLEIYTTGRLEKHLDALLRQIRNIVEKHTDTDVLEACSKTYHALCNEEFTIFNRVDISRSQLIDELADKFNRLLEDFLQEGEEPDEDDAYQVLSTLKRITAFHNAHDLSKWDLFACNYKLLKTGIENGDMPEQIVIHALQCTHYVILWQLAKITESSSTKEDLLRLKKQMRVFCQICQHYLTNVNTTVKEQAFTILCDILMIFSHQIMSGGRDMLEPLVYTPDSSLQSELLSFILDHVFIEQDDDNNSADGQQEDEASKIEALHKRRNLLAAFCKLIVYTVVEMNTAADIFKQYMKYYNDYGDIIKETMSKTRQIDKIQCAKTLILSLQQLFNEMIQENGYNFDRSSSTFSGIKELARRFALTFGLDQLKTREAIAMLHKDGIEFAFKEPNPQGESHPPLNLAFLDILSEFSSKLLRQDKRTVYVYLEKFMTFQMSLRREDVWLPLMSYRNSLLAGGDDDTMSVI
T1 sequence (looked up) 2: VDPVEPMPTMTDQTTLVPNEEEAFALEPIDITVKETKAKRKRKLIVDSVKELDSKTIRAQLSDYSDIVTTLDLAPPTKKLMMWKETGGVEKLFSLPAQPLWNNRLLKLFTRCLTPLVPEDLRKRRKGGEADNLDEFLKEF

For experiment [2], the target named is T2, His6-SET (full length) (human, UniProt Q01105 1-290).
Experiment [3] addresses T1, cohesin subcomplex containing SA2 …. The source holds these as a separate data set.
In experiment [4] the target is T2, His6-SET (full length). This is another data set of the same source.

Read-outs that look alike come from different tables or passages of the source.

T2 sequence (Q01105 whole entry): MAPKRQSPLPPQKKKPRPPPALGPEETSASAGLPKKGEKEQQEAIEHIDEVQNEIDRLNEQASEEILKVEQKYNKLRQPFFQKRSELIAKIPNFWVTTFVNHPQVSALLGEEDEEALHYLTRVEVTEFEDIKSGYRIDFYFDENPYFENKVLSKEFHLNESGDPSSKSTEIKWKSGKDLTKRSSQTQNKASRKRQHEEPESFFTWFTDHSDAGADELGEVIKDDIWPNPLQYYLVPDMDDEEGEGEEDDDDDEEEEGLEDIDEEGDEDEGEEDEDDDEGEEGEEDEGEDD

B1: GST-Sgo1 ΔSET (241–387 depleted of 281–310) (domain or fragment, human, UniProt Q5FBB7 241-387, looked up)
chain: VQHNACQWSKDQVNLSPKLIQPGTFTKTKEDILESKSEQTENKSENKKTVPQKKMHKSVSSNDAYNFNLEEGVHLTPFRQKVSNDSNREENNESEVSLCESSGSGDDSDDLYLPTCK
Consider B1, for which, in experiment [1], the binding result is “binds”.

B2: GST-Sgo1 WT (241–387) (domain or fragment, human, UniProt Q5FBB7 241-387, looked up)
chain: VQHNACQWSKDQVNLSPKLIQPGTFTKTKEDILESKSEQTKSKQRDTQERKREEKRKANRRKSKRMSKYKENKSENKKTVPQKKMHKSVSSNDAYNFNLEEGVHLTPFRQKVSNDSNREENNESEVSLCESSGSGDDSDDLYLPTCK
On to B2, for which the binding result (in experiment [1]; with His6-SET (full length) [2]) was “binds” throughout.

B3: GST-Sgo1 (241–387), Cdk1-phosphorylated (domain or fragment, human, UniProt Q5FBB7 241-387, looked up)
chain: VQHNACQWSKDQVNLSPKLIQPGTFTKTKEDILESKSEQTKSKQRDTQERKREEKRKANRRKSKRMSKYKENKSENKKTVPQKKMHKSVSSNDAYNFNLEEGVHLTPFRQKVSNDSNREENNESEVSLCESSGSGDDSDDLYLPTCK
modifications: phospho-Thr346 (Cdk1/cyclin B1; detected with antibody against Sgo1 pT346; how much was phosphorylated could not be measured)
Regarding B3, the binding result (in experiment [3]; with His6-SET (full length) [4]) was “binds” throughout.

B4: GST-Sgo1 ΔCohesin (241–387 depleted of 313–353) (domain or fragment, human, UniProt Q5FBB7 241-387, looked up)
chain: VQHNACQWSKDQVNLSPKLIQPGTFTKTKEDILESKSEQTKSKQRDTQERKREEKRKANRRKSKRMSKYKENNDSNREENNESEVSLCESSGSGDDSDDLYLPTCK
As to B4, the binding result with His6-SET (full length) [2] is recorded as “binds”.

B5: GST-Sgo1 fragment 280–353 (domain or fragment, human, UniProt Q5FBB7 280-353, looked up)
chain: TKSKQRDTQERKREEKRKANRRKSKRMSKYKENKSENKKTVPQKKMHKSVSSNDAYNFNLEEGVHLTPFRQKVS
As to B5, in the experiment with His6-SET (full length) [2], the binding result was “binds”.

B6: GST-Sgo1 fragment 115–353 (domain or fragment, human, UniProt Q5FBB7 115-353, looked up)
chain: QEICSSGMDPNSDDSSRNLFVKDLPQIPLEETELPGQGESFQIEDQIPTIPQDTLGVDFDSGEAKSTDNVLPRTVSVRSSLKKHCNSICQFDSLDDFETSHLAGKSFEFERVGFLDPLVNMHIPENVQHNACQWSKDQVNLSPKLIQPGTFTKTKEDILESKSEQTKSKQRDTQERKREEKRKANRRKSKRMSKYKENKSENKKTVPQKKMHKSVSSNDAYNFNLEEGVHLTPFRQKVS
Turning to B6, the binding result with His6-SET (full length) [2] is on record as “binds”.

B7: GST-Sgo1 fragment 200–353 (domain or fragment, human, UniProt Q5FBB7 200-353, looked up)
chain: NSICQFDSLDDFETSHLAGKSFEFERVGFLDPLVNMHIPENVQHNACQWSKDQVNLSPKLIQPGTFTKTKEDILESKSEQTKSKQRDTQERKREEKRKANRRKSKRMSKYKENKSENKKTVPQKKMHKSVSSNDAYNFNLEEGVHLTPFRQKVS
On to B7, for which the binding result with His6-SET (full length) [2] is “binds”.

Source of the values: PMC6683731 (The Journal of Cell Biology, 2019).
